# From the RNAGym collection of RNA variant scans (doi:10.7554/elife.80360)
# B1: CPEB3 Ribozyme (parent)
# chain: GGGGGCCACAGCAGAAGCGUUCACGUCGCGGCCCCUGUCAGAUUCUGGUGAAUCUGCGAAUUCUGCUGU
# Variants of: B1
# Assay: self-cleavage, relative activity (ratio to wild type); higher = more cleavage; co-transcriptional
row,Variant,self-cleavage
1,C22U G30C,0.181
2,C22U G31A,0.183
3,C22U G31C,0.103
4,C22U G31U,0.116
5,C22U G37A,0.957
6,C22U G37C,0.216
7,C22U G41A,0.185
8,C22U G41C,0.117
9,C22U G41U,0.164
10,C22U G47A,0.279
11,C22U G47C,0.389
12,C22U G47U,0.37
13,C22U G48C,0.313
14,C22U G48U,0.401
15,C22U G50A,0.355
16,C22U G50C,0.243
17,C22U G50U,0.312
18,C22U G56A,0.187
19,C22U G56C,0.21
20,C22U G56U,0.169
21,C22U G58A,0.255
22,C22U G58C,0.223
23,C22U G58U,0.374
24,C22U G65A,0.216

row,Variant,self-cleavage
1,C22U G65C,0.248
2,C22U G65U,0.195
3,C22U G68A,0.48
4,C22U G68C,0.517
5,C22U U26A,0.2
6,C22U U36A,0.196
7,C22U U36C,0.157
8,C22U U36G,0.175
9,C22U U38A,0.272
10,C22U U38C,0.304
11,C22U U38G,0.141
12,C22U U43A,0.217
13,C22U U43G,0.222
14,C22U U44A,0.318
15,C22U U44C,0.31
16,C22U U44G,0.241
17,C22U U46A,0.29
18,C22U U49C,0.294
19,C22U U49G,0.247
20,C22U U53A,0.193
21,C22U U53C,0.227
22,C22U U53G,0.111
23,C22U U55A,0.182
24,C22U U55C,0.157

row,Variant,self-cleavage
1,C22U U55G,0.169
2,C22U U61C,0.134
3,C22U U61G,0.264
4,C22U U62A,0.167
5,C22U U62G,0.207
6,C22U U64A,0.21
7,C22U U67A,0.369
8,C22U U69A,0.384
9,C22U U69C,0.601
10,C22U U69G,0.462
11,A23C,0.957
12,A23C A40G,0.92
13,A23C A42G,0.901
14,A23C A51C,0.942
15,A23C A51G,0.899
16,A23C A51U,0.959
17,A23C A52C,0.921
18,A23C A52G,0.963
19,A23C A52U,0.917
20,A23C A59C,0.69
21,A23C A59G,0.96
22,A23C A60C,0.327
23,A23C A60G,0.828
24,A23C C24A,0.785

row,Variant,self-cleavage
1,A23C C24G,0.414
2,A23C C24U,0.52
3,A23C C27A,0.463
4,A23C C27U,0.358
5,A23C C29A,0.603
6,A23C C29U,0.389
7,A23C C32A,0.59
8,A23C C32G,0.329
9,A23C C33G,0.439
10,A23C C33U,0.937
11,A23C C34A,0.696
12,A23C C34G,0.36
13,A23C C34U,0.936
14,A23C C35G,0.417
15,A23C C39A,0.798
16,A23C C39G,0.905
17,A23C C45A,0.986
18,A23C C45G,0.931
19,A23C C45U,0.961
20,A23C C54G,0.921
21,A23C C54U,0.967
22,A23C C57A,0.339
23,A23C C57G,0.412
24,A23C C57U,0.406

row,Variant,self-cleavage
1,A23C C63A,0.738
2,A23C C63G,0.573
3,A23C C66A,0.908
4,A23C C66U,0.94
5,A23C G25A,0.203
6,A23C G28A,0.206
7,A23C G28C,0.183
8,A23C G30A,0.743
9,A23C G30C,0.58
10,A23C G31C,0.186
11,A23C G31U,0.528
12,A23C G37A,0.3
13,A23C G37C,0.254
14,A23C G41U,0.815
15,A23C G48C,0.924
16,A23C G50A,0.946
17,A23C G50C,0.981
18,A23C G50U,0.953
19,A23C G56A,0.852
20,A23C G56C,0.762
21,A23C G58C,0.891
22,A23C G65A,0.764
23,A23C G65C,0.535
24,A23C G65U,0.674

row,Variant,self-cleavage
1,A23C G68C,0.977
2,A23C G68U,0.995
3,A23C U26G,0.749
4,A23C U36C,0.679
5,A23C U38G,0.216
6,A23C U43A,0.771
7,A23C U43G,0.82
8,A23C U44C,0.874
9,A23C U46A,0.923
10,A23C U49A,0.951
11,A23C U49C,0.927
12,A23C U53C,0.915
13,A23C U53G,0.81
14,A23C U55C,0.891
15,A23C U61A,0.832
16,A23C U61G,0.855
17,A23C U62C,0.818
18,A23C U62G,0.853
19,A23C U64C,0.912
20,A23C U64G,0.878
21,A23C U67A,0.988
22,A23C U67C,0.97
23,A23C U69A,0.959
24,A23C U69C,1.04

row,Variant,self-cleavage
1,A23G,0.984
2,A23G A40C,0.328
3,A23G A40G,0.992
4,A23G A51U,1
5,A23G A52C,0.935
6,A23G A52G,1.02
7,A23G A52U,0.933
8,A23G A59C,0.699
9,A23G A59U,0.817
10,A23G A60C,0.249
11,A23G A60G,0.866
12,A23G A60U,0.385
13,A23G C24A,0.711
14,A23G C24G,0.36
15,A23G C24U,0.833
16,A23G C27A,0.303
17,A23G C27U,0.222
18,A23G C29A,0.401
19,A23G C29G,0.211
20,A23G C32A,0.436
21,A23G C32U,0.976
22,A23G C33A,0.679
23,A23G C33G,0.262
